Data from patent US20240024426A1, “HYPOTENSIVE PHARMACEUTICAL COMPOSITION COMPRISING TRIPLE ACTIVATOR HAVING ACTIVITY FOR ALL OF GLUCAGON, GLP-1, AND GIP RECEPTORS” (HANMI PHARM. CO., LTD., priority 2020, published 2024).
Bridges are numbered along the chain shown (N, C = ends). Where no end group is shown, it is not given here. [ ]: non-standard residue; d: D form. The star is where a group is joined. Acetyl(2-(4-imidazolyl)) = O=C(Cc1c[nH]cn1)*; Aib = CC(C)(N)C(=O)O

T1: human GIP receptor (human, UniProt P48546 22-466)
T1 sequence (looked up): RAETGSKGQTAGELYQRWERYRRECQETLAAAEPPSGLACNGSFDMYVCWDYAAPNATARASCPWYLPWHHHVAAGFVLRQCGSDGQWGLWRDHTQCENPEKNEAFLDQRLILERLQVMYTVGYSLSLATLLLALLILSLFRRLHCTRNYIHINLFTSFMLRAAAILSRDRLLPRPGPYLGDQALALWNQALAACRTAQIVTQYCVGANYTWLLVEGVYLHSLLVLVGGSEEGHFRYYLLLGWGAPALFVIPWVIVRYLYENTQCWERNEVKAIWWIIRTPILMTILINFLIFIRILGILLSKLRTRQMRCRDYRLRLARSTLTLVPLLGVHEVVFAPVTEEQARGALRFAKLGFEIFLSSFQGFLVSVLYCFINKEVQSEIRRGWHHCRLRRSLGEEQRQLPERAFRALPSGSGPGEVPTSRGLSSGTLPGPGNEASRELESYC


Key:
Assay in all cases: cell-based or functional assay
human GLP-1 receptor = human GLP-1 receptor (human, UniProt P43220 24-463)
human GCG receptor = human GCG receptor (human, UniProt P47871 26-477)
human GIP receptor = target: T1, human GIP receptor

human GCG receptor, sequence (P47871 26-477): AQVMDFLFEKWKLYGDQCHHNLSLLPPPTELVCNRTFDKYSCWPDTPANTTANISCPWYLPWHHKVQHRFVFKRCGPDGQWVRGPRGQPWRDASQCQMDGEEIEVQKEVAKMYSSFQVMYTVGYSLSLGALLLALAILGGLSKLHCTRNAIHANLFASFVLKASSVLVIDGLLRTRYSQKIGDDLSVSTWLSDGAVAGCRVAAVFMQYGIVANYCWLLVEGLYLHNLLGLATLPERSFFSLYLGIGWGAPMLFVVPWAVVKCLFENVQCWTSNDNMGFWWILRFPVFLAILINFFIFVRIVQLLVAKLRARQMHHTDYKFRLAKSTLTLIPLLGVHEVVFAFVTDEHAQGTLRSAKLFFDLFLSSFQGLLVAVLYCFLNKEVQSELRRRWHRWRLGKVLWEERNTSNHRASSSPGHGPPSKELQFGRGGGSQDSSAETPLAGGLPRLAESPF

| Binder | In vitro activity compared with native peptide (%) vs. GLP-1 (human GLP-1 receptor) [%] | In vitro activity compared with native peptide (%) vs. Glucagon (human GCG receptor) [%] | In vitro activity compared with native peptide (%) vs. GIP (human GIP receptor) [%] |
| --- | --- | --- | --- |
| H[Aib]QGTFTSDYSKYLDEKRQKEFVQWLLNTC (bridge 16-20) [Triple agonist of SEQ ID NO: 51] | 14.4 | 2 | 0.1 |
| H[Aib]QGTFTSDYSIAMDEIHQKDFVNWLLNTC (bridge 16-20) [Triple agonist of SEQ ID NO: 57] | 11.7 | < 0.1 | 0.3 |
| H[Aib]QGTFTSDVSSYLLGQQQKEFIAWLVKGC [Triple agonist of SEQ ID NO: 4] | 8.5 | < 0.1 | < 0.1 |
| {Acetyl(2-(4-imidazolyl))}-[Aib]QGTFTSDYSICMDEIHQKDFVNWLLNTK (bridge 15-19) [Triple agonist of SEQ ID NO: 49] | 29.8 | < 0.1 | 3.3 |
| H[Aib]QGTFTSDYSKYLDGQHAQCFVAWLLAGGGPSSGAPPPS [Triple agonist of SEQ ID NO: 39] | 13.9 | 0.53 | < 0.1 |
| H[Aib]EGTFTSDYSIAMDEIHQKDFVNWLLAQC (bridge 16-20) [Triple agonist of SEQ ID NO: 53] | 161 | 8.4 | 1.3 |
| H[Aib]QGTFTSDYSKYLDEKRQKEFVQWLLDTC (bridge 16-20) [Triple agonist of SEQ ID NO: 52] | 44.1 | 7.5 | 0.3 |
| H[Aib]QGTFTSDYSKYLDEKRAKEFVQWLLDHHPSSGQPPPSC (bridge 16-20) [Triple agonist of SEQ ID NO: 50] | 67.4 | 50.5 | 2.7 |
| H[Aib]QGTFTSDYSKYLDECRQKEFVQWLLNGGPSSGAPPPSG (bridge 16-20) [Triple agonist of SEQ ID NO: 37] | 236 | 6.21 | 2.2 |
| HGQGTFTSDCSKQLDGQAAQEFVAWLLAGGPSSGAPPPS [Triple agonist of SEQ ID NO: 44] | 1.3 | < 0.1 | < 0.1 |
| HGQGTFTSDCSKYLDGQRAQEFVAWLLAGGPSSGAPPPS [Triple agonist of SEQ ID NO: 47] | 2.4 | < 0.1 | < 0.1 |
| HGQGTFTSDCSKYMDGQAAQDFVAWLLAGGPSSGAPPPS [Triple agonist of SEQ ID NO: 45] | 6.6 | < 0.1 | < 0.1 |
| HGQGTFTSDCSKYLDGQRAQDFVNWLLAGGPSSGAPPPS [Triple agonist of SEQ ID NO: 48] | 1.5 | < 0.1 | < 0.1 |
| HGQGTFTSDCSKYLDEQHAQEFVAWLLAGGPSSGAPPPS [Triple agonist of SEQ ID NO: 46] | 1.4 | < 0.1 | < 0.1 |
| H[Aib]QGTFTSDYSIAMDEIHQKDFVNWLLAQC (bridge 16-20) [Triple agonist of SEQ ID NO: 55] | 27.1 | 0.7 | 2.4 |
| H[Aib]QGTFTSDYSKYLCEKRQKEFVQWLLNGGPSSGAPPPSG (bridge 16-20) [Triple agonist of SEQ ID NO: 36] | 37.4 | 0.39 | 0.2 |
| H[Aib]QGTFTSDKSKYLDERACQDFVQWLLDGGPSSGAPPPS [Triple agonist of SEQ ID NO: 40] | 75.2 | < 0.1 | < 0.1 |
| Y[Aib]QGTFTSDYSKYLDEKRAKEFVQWLLDHHPSSGQPPPSC (bridge 16-20) [Triple agonist of SEQ ID NO: 42] | 33.9 | 206 | 7.8 |
| H[Aib]EGTFTSDYSIAMDEIHQKDFVDWLLAEC (bridge 16-20) [Triple agonist of SEQ ID NO: 54] | 30.6 | 1.4 | 0.1 |
| H[Aib]QGTFTSDYSKYLDEKRQKEFVNWLLAQC (also: ring formation, positions not given here) [Triple agonist of SEQ ID NO: 56] | 57.9 | 4.9 | 0.8 |
| H[Aib]QGTFTSDVSSYLDGQAAKEFVAWLLKGC [Triple agonist of SEQ ID NO: 6] | 17 | < 0.1 | < 0.1 |
| H[Aib]QGTFTSDKSKYLDECAAQDFVQWLLDGGPSSGAPPPS [Triple agonist of SEQ ID NO: 41] | 34.3 | < 0.1 | < 0.1 |
| H[Aib]QGTFTSDVSSYLLGQQQKEFIAWLVKGGGPSSGAPPPSC [Triple agonist of SEQ ID NO: 5] | 42.1 | < 0.1 | < 0.1 |
| H[Aib]QGTFTSDYSIAMDEIHQKDFVNWLLNTKC (bridge 16-20) [Triple agonist of SEQ ID NO: 35] | 7.5 | < 0.1 | 1.3 |
| [Acetyl(2-(4-imidazolyl))][Aib]QGTFTSDKSSYLDERAAQDFVQWLLDGGPSSGAPPPSS [Triple agonist of SEQ ID NO: 38] | 2.3 |  |  |
| Y[Aib]QGTFTSDYSKYLDEKRAKEFVQWLLDHHCSSGQPPPS (bridge 16-20) [Triple agonist of SEQ ID NO: 43] | 12.6 | 88.4 | 3.7 |
| H[Aib]QGTFTSDYSKYLDEKRQKEFVNWLLAQKC (bridge 16-20) [Triple agonist of SEQ ID NO: 34] | 19.1 | 0.92 | 0.6 |
